Reference: paper PMC6667744 (Pharmacology Research & Perspectives, 2019)

Biological target: Nanoluc‐RXFP2 (UniProt Q8WXD0 1-754)
Experiment: FRET or BRET

Chain of Nanoluc‐RXFP2 (Q8WXD0 whole entry): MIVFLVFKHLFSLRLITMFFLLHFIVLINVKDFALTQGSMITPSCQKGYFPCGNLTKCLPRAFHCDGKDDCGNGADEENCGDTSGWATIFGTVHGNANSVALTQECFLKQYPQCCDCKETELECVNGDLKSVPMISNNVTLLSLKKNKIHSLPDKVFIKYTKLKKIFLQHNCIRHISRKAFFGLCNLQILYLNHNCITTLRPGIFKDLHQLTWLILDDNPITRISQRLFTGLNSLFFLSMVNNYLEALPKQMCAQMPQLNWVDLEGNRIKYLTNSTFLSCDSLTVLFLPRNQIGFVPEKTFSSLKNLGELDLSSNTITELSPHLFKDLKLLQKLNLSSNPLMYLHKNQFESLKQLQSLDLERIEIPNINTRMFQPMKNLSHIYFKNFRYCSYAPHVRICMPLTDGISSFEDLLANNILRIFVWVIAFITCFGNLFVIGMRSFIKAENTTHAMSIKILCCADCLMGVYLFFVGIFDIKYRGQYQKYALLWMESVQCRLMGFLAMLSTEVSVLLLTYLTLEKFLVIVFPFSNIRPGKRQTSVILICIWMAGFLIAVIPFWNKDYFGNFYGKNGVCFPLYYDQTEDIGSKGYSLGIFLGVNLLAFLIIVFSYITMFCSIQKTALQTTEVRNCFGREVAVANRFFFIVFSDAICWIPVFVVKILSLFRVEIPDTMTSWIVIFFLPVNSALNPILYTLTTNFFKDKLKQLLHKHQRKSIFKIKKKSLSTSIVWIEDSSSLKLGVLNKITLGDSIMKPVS

B1: mCitrine‐RXFP1 (receptor)
chain: QDVKCSLGYFPCGNITKCLPQLLHCNGVDDCGNQADEDNCGDNNGWSLQFDKYFASYYKMTSQYPFEAETPECLVGSVPVQCLCQGLELDCDETNLRAVPSVSSNVTAMSLQWNLIRKLPPDCFKNYHDLQKLYLQNNKITSISIYAFRGLNSLTKLYLSHNRITFLKPGVFEDLHRLEWLIIEDNHLSRISPPTFYGLNSLILLVLMNNVLTRLPDKPLCQHMPRLHWLDLEGNHIHNLRNLTFISCSNLTVLVMRKNKINHLNENTFAPLQKLDELDLGSNKIENLPPLIFKDLKELSQLNLSYNPIQKIQANQFDYLVKLKSLSLEGIEISNIQQRMFRPLMNLSHIYFKKFQYCGYAPHVRSCKPNTDGISSLENLLASIIQRVFVWVVSAVTCFGNIFVICMRPYIRSENKLYAMSIISLCCADCLMGIYLFVIGGFDLKFRGEYNKHAQLWMESTHCQLVGSLAILSTEVSVLLLTFLTLEKYICIVYPFRCVRPGKCRTITVLILIWITGFIVAFIPLSNKEFFKNYYGTNGVCFPLHSEDTESIGAQIYSVAIFLGINLAAFIIIVFSYGSMFYSVHQSAITATEIRNQVKKEMILAKRFFFIVFTDALCWIPIFVVKFLSLLQVEIPGTITSWVVIFILPINSALNPILYTLTTRPFKEMIHRFWYNYRQRKSMDSKGQKTYAPSFIWVEMWPLQEMPPELMKPDLFTYPCEMSLISQSTRLNSYS
  BRET signal relative to that of Nanoluc-RXFP1 with mCitrine-RXFP1: ~75%
